Article PMC4742998

Target: complement component 9 (C9) (human)
Assay: cryo-EM structure; monomeric C9 polymerised in solution by overnight incubation at 1 mg/ml and 37 °C; single-particle cryo-EM of soluble poly-C9, 22-fold symmetry applied during refinement, about 5,000 particles, 8 Å

stoichiometry N: 22
Substance: complement component 9 (C9) (natural protein)
